Laboratory results published in patent US20160264649A1.

Columns and labels:
Assay in all cases: cell-based or functional assay
[1] = target: HIV-1 6535.3 (Acute) Env on pseudovirus (HIV-1)
[2] = target: HIV-1 92BR020 Env on pseudovirus (HIV-1)
[3] = target: HIV-1 92RW020 Env (HIV-1)
[4] = target: HIV-1 92TH021 Env (HIV-1)
[5] = target: HIV-1 93IN905 Env (HIV-1)
[6] = target: HIV-1 93UG077 Env (HIV-1)
[7] = target: HIV-1 94UG103 Env (HIV-1)
[8] = target: HIV-1 98CN009 Env on pseudovirus (HIV-1)
HIV-1 APV-13 Env (HIV-1) = target: HIV-1 APV-13 Env (HIV-1)
HIV-1 APV-17 Env (HIV-1) = target: HIV-1 APV-17 Env (HIV-1)
[9] = target: HIV-1 APV_13 Env on pseudovirus (HIV-1)
[10] = target: HIV-1 IAVI-C22 Env (HIV-1)
[11] = target: HIV-1 IAVI-C3 Env (HIV-1)
[12] = target: HIV-1 JRFL Env on pseudovirus (HIV-1)
[13] = target: HIV-1 MGRM-AE-006 Env (HIV-1)
[14] = target: HIV-1 MGRM-AG-003 Env (HIV-1)
[15] = target: HIV-1 MGRM-AG-005 Env (HIV-1)
[16] = target: HIV-1 MGRM-AG-008 Env (HIV-1)
[17] = target: HIV-1 MGRM-AG-009 Env (HIV-1)
[18] = target: HIV-1 MGRM-AG-011 Env (HIV-1)
[19] = target: HIV-1 MGRM-AG-012 Env (HIV-1)
[20] = target: HIV-1 MGRM-C-001 Env on pseudovirus (HIV-1)
[21] = target: HIV-1 MGRM-C-004 Env on pseudovirus (HIV-1)
[22] = target: HIV-1 MGRM-C-012 Env on pseudovirus (HIV-1)
[23] = target: HIV-1 MGRM-C-014 Env on pseudovirus (HIV-1)
[24] = target: HIV-1 MGRM-C-020 Env on pseudovirus (HIV-1)
[25] = target: HIV-1 MGRM-C-023 Env on pseudovirus (HIV-1)
[26] = target: HIV-1 MGRM-C-024 Env on pseudovirus (HIV-1)
[27] = target: HIV-1 MGRM-C-025 Env on pseudovirus (HIV-1)
[28] = target: HIV-1 MGRM-Chronic-B-011 Env on pseudovirus (HIV-1)
[29] = target: HIV-1 MGRM-Chronic-B-020 Env on pseudovirus (HIV-1)
[30] = target: HIV-1 MGRM-D-002 Env (HIV-1)
[31] = target: HIV-1 MGRM-D-003 Env (HIV-1)
[32] = target: HIV-1 MGRM-D-014 Env (HIV-1)
[33] = target: HIV-1 MGRM-D-020 Env (HIV-1)
[34] = target: HIV-1 MGRM-D-021 Env (HIV-1)
[35] = target: HIV-1 MGRM-D-024 Env (HIV-1)
[36] = target: HIV-1 MGRM-F1-010 Env (HIV-1)
[37] = target: HIV-1 MGRM-F1-015 Env (HIV-1)
[38] = target: HIV-1 MGRM-F1-020 Env (HIV-1)
[39] = target: HIV-1 MGRM-F1-021 Env (HIV-1)
[40] = target: HIV-1 MGRM-G-001 Env (HIV-1)
[41] = target: HIV-1 MGRM-G-014 Env (HIV-1)
[42] = target: HIV-1 MGRM-G-015 Env (HIV-1)
[43] = target: HIV-1 MGRM-G-016 Env (HIV-1)
[44] = target: HIV-1 MGRM-G-019 Env (HIV-1)
[45] = target: HIV-1 MGRM-G-024 Env (HIV-1)
[46] = target: HIV-1 MGRM-G-025 Env (HIV-1)
[47] = target: HIV-1 MGRM-G-028 Env (HIV-1)
HIV-1 NL43 Env (HIV-1) = target: HIV-1 NL43 Env (HIV-1)
[48] = target: HIV-1 NL43 Env on pseudovirus (HIV-1)
aMLV envelope = target: aMLV envelope

2F5 (antibody)
IC50 [1]: 2.76 µg/mL
IC50 [2]: > 50 µg/mL
neutralization IC50 [3]: 3.37 µg/mL
neutralization IC90 [3]: 27.7 µg/mL
neutralization IC50 [4]: 1.51 µg/mL
neutralization IC90 [4]: 18.8 µg/mL
neutralization IC50 [5]: > 50 µg/mL
neutralization IC90 [5]: > 50 µg/mL
neutralization IC50 [6]: 4.45 µg/mL
neutralization IC90 [6]: 33.4 µg/mL
neutralization IC50 [7]: 3.79 µg/mL
neutralization IC90 [7]: 46.6 µg/mL
IC50 [8]: > 50 µg/mL
neutralization IC50 (HIV-1 APV-13 Env (HIV-1)): 2.8 µg/mL
neutralization IC50 (HIV-1 APV-17 Env (HIV-1)): 2 µg/mL
IC50 [9]: 3.81 µg/mL
neutralization IC50 [10]: > 50 µg/mL
neutralization IC90 [10]: > 50 µg/mL
neutralization IC50 [11]: > 50 µg/mL
IC50 [12]: 3.54 µg/mL
IC50 (µg/ml), pseudovirus neutralization [13]: 0.18 µg/mL
IC50 (µg/ml), pseudovirus neutralization [14]: 0.14 µg/mL
IC50 (µg/ml), pseudovirus neutralization [15]: > 50 µg/mL
IC50 (µg/ml), pseudovirus neutralization [16]: 0.54 µg/mL
IC50 (µg/ml), pseudovirus neutralization [17]: 24.8 µg/mL
IC50 (µg/ml), pseudovirus neutralization [18]: > 50 µg/mL
IC50 (µg/ml), pseudovirus neutralization [19]: 0.33 µg/mL
IC50 [20]: > 50 µg/mL
IC50 [21]: > 50 µg/mL
IC50 [22]: > 50 µg/mL
IC50 [23]: > 50 µg/mL
IC50 [24]: > 50 µg/mL
IC50 [25]: > 50 µg/mL
IC50 [26]: > 50 µg/mL
IC50 [27]: > 50 µg/mL
IC50 [28]: 0.81 µg/mL
IC50 [29]: 0.78 µg/mL
IC50 (µg/ml), pseudovirus neutralization [30]: 24.6 µg/mL
IC50 (µg/ml), pseudovirus neutralization [31]: > 50 µg/mL
IC50 (µg/ml), pseudovirus neutralization [32]: 2.22 µg/mL
IC50 (µg/ml), pseudovirus neutralization [33]: > 50 µg/mL
IC50 (µg/ml), pseudovirus neutralization [34]: > 50 µg/mL
IC50 (µg/ml), pseudovirus neutralization [35]: > 50 µg/mL
IC50 (pseudovirus neutralization) [36]: 14.6 µg/mL
IC50 (pseudovirus neutralization) [37]: 0.1 µg/mL
IC50 (pseudovirus neutralization) [38]: 0.59 µg/mL
IC50 (pseudovirus neutralization) [39]: 1.37 µg/mL
IC50 (µg/ml), pseudovirus neutralization [40]: 4.1 µg/mL
IC50 (µg/ml), pseudovirus neutralization [41]: 9.65 µg/mL
IC50 (µg/ml), pseudovirus neutralization [42]: 0.43 µg/mL
IC50 (µg/ml), pseudovirus neutralization [43]: 16.8 µg/mL
IC50 (µg/ml), pseudovirus neutralization [44]: > 50 µg/mL
IC50 (µg/ml), pseudovirus neutralization [45]: 1.07 µg/mL
IC50 (µg/ml), pseudovirus neutralization [46]: > 50 µg/mL
IC50 (µg/ml), pseudovirus neutralization [47]: 2.24 µg/mL
neutralization IC50 (HIV-1 NL43 Env (HIV-1)): 2.41 µg/mL
neutralization IC90 (HIV-1 NL43 Env (HIV-1)): 19.3 µg/mL
IC50 [48]: 2.02 µg/mL
neutralization IC50 (aMLV envelope): > 50 µg/mL
neutralization IC90 (aMLV envelope): > 50 µg/mL

2G12 (antibody)
IC50 [1]: 3.85 µg/mL
IC50 [2]: 4.84 µg/mL
neutralization IC50 [3]: 0.56 µg/mL
neutralization IC90 [3]: 6.23 µg/mL
IC50 (µg/ml), pseudovirus neutralization [4]: > 50 µg/mL
neutralization IC50 [4]: > 50 µg/mL
neutralization IC90 [4]: > 50 µg/mL
neutralization IC50 [5]: > 50 µg/mL
neutralization IC90 [5]: > 50 µg/mL
neutralization IC50 [6]: > 50 µg/mL
neutralization IC90 [6]: > 50 µg/mL
neutralization IC50 [7]: > 50 µg/mL
neutralization IC90 [7]: > 50 µg/mL
IC50 [8]: > 50 µg/mL
neutralization IC50 (HIV-1 APV-13 Env (HIV-1)): 23.9 µg/mL
neutralization IC50 (HIV-1 APV-17 Env (HIV-1)): > 50 µg/mL
IC50 [9]: 9.24 µg/mL
neutralization IC50 [10]: > 50 µg/mL
neutralization IC90 [10]: > 50 µg/mL
neutralization IC50 [11]: > 50 µg/mL
neutralization IC90 [11]: > 50 µg/mL
IC50 [12]: 1.45 µg/mL
IC50 (µg/ml), pseudovirus neutralization [13]: > 50 µg/mL
IC50 (µg/ml), pseudovirus neutralization [14]: > 50 µg/mL
IC50 (µg/ml), pseudovirus neutralization [15]: > 50 µg/mL
IC50 (µg/ml), pseudovirus neutralization [16]: > 50 µg/mL
IC50 (µg/ml), pseudovirus neutralization [17]: > 50 µg/mL
IC50 (µg/ml), pseudovirus neutralization [18]: > 50 µg/mL
IC50 (µg/ml), pseudovirus neutralization [19]: 1.94 µg/mL
IC50 [20]: 2.93 µg/mL
IC50 [21]: > 50 µg/mL
IC50 [22]: > 50 µg/mL
IC50 [23]: > 50 µg/mL
IC50 [24]: 18.6 µg/mL
IC50 [25]: > 50 µg/mL
IC50 [26]: > 50 µg/mL
IC50 [27]: > 50 µg/mL
IC50 [28]: > 50 µg/mL
IC50 [29]: 0.2 µg/mL
IC50 (µg/ml), pseudovirus neutralization [30]: > 50 µg/mL
IC50 (µg/ml), pseudovirus neutralization [31]: > 50 µg/mL
IC50 (µg/ml), pseudovirus neutralization [32]: > 50 µg/mL
IC50 (µg/ml), pseudovirus neutralization [33]: > 50 µg/mL
IC50 (µg/ml), pseudovirus neutralization [34]: 23 µg/mL
IC50 (µg/ml), pseudovirus neutralization [35]: > 50 µg/mL
IC50 (pseudovirus neutralization) [37]: > 50 µg/mL
IC50 (pseudovirus neutralization) [38]: > 50 µg/mL
IC50 (pseudovirus neutralization) [39]: 14.1 µg/mL
IC50 (µg/ml), pseudovirus neutralization [40]: > 50 µg/mL
IC50 (µg/ml), pseudovirus neutralization [41]: > 50 µg/mL
IC50 (µg/ml), pseudovirus neutralization [42]: > 50 µg/mL
IC50 (µg/ml), pseudovirus neutralization [43]: > 50 µg/mL
IC50 (µg/ml), pseudovirus neutralization [44]: 31 µg/mL
IC50 (µg/ml), pseudovirus neutralization [45]: > 50 µg/mL
IC50 (µg/ml), pseudovirus neutralization [46]: 31.9 µg/mL
IC50 (µg/ml), pseudovirus neutralization [47]: 28.2 µg/mL
neutralization IC50 (HIV-1 NL43 Env (HIV-1)): 0.75 µg/mL
neutralization IC90 (HIV-1 NL43 Env (HIV-1)): 15.8 µg/mL
IC50 [48]: 0.49 µg/mL
neutralization IC50 (aMLV envelope): > 50 µg/mL
neutralization IC90 (aMLV envelope): > 50 µg/mL

1496_C09 (PG9) (TCN-109) (antibody)
IC50 [1]: 0.22 µg/mL
IC50, TZM-bl pseudovirus neutralization [3]: 0.1 µg/mL
neutralization IC50 [3]: 0.0637 µg/mL
neutralization IC90 [3]: 6.55 µg/mL
IC50 (µg/ml), pseudovirus neutralization [4]: 0.09 µg/mL
neutralization IC50 [4]: 0.111 µg/mL
neutralization IC90 [4]: 1.99 µg/mL
neutralization IC90 [5]: 1.89 µg/mL
neutralization IC50 [7]: 0.173 µg/mL
neutralization IC90 [7]: 3.37 µg/mL
IC50 [8]: 1.07 µg/mL
neutralization IC50 (HIV-1 APV-17 Env (HIV-1)): 26.4 µg/mL
neutralization IC50 [10]: 24.9 µg/mL
neutralization IC50 [11]: 12.9 µg/mL
IC50 (µg/ml), pseudovirus neutralization [13]: 0.05 µg/mL
IC50 (µg/ml), pseudovirus neutralization [14]: 9.71 µg/mL
IC50 (µg/ml), pseudovirus neutralization [15]: 29.7 µg/mL
IC50 (µg/ml), pseudovirus neutralization [18]: 0.01 µg/mL
IC50 (µg/ml), pseudovirus neutralization [19]: 1.37 µg/mL
IC50 [21]: 1.18 µg/mL
IC50 [22]: 0.24 µg/mL
IC50 [23]: 0.64 µg/mL
IC50 [25]: 0.51 µg/mL
IC50 [26]: 0.22 µg/mL
IC50 [27]: 0.17 µg/mL
IC50 (µg/ml), pseudovirus neutralization [30]: 0.027 µg/mL
IC50 (µg/ml), pseudovirus neutralization [33]: 2.03 µg/mL
IC50 (µg/ml), pseudovirus neutralization [35]: 0.03 µg/mL
IC50 (pseudovirus neutralization) [36]: 0.03 µg/mL
IC50 (pseudovirus neutralization) [38]: 4.55 µg/mL
IC50 (µg/ml), pseudovirus neutralization [40]: 0.16 µg/mL
IC50 (µg/ml), pseudovirus neutralization [41]: 6.32 µg/mL
IC50 (µg/ml), pseudovirus neutralization [42]: 1.51 µg/mL
IC50 (µg/ml), pseudovirus neutralization [43]: 0.4 µg/mL
IC50 (µg/ml), pseudovirus neutralization [44]: 0.67 µg/mL
IC50 (µg/ml), pseudovirus neutralization [45]: 0.07 µg/mL
IC50 [48]: 0.32 µg/mL
